Test results as given in the supplement of paper PMC10065799, “High-throughput profiling of sequence recognition by tyrosine kinases and SH2 domains using bacterial peptide display” (eLife, 2023).

Tests used:
c-Src SH2 = assay: SH2 binding enrichment of the phosphorylated peptide, bacterial display (enrichment ratio); higher = better substrate or ligand; peptides without Tyr show the background
Grb2 SH2 = Grb2 SH2 (UniProt P62993); assay: as above
SHP2-C SH2 = assay: as above
Hck = Hck (UniProt P08631); assay: phosphorylation enrichment, bacterial display (enrichment ratio); higher = better substrate or ligand; peptides without Tyr show the background
FGFR1 = FGFR1 (UniProt P11362); assay: as above
EPHB1 = EPHB1 (UniProt P54762); assay: as above
Jak2 = Jak2 (UniProt O60674); assay: as above
AncSZ = assay: as above
Fer (mouse) = assay: as above
Fyn = Fyn (UniProt P06241); assay: as above
c-Abl (mouse) = assay: as above
c-Src = assay: as above
EPHB2 = EPHB2 (UniProt P29323); assay: as above
Fes = Fes (UniProt P07332); assay: as above
MERTK = MERTK (UniProt Q12866); assay: as above
FGFR3 = FGFR3 (UniProt P22607); assay: as above
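Throughout, for SH2 binding enrichment of the phosphorylated peptide, bacterial display: peptide library displayed on the E. coli surface as eCPX fusions, selected cells deep-sequenced, score is each peptide's frequency after selection divided by its frequency in the input.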
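Throughout, for phosphorylation enrichment, bacterial display: 11-residue human phosphosite peptides and single-mutation variants displayed on the E. coli surface, counted by deep sequencing, each peptide's frequency after selection divided by its frequency in the unselected input library; frequency after pTyr selection over input frequency; kinase dosed for 20-30% of maximal phosphorylation in three min.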

FGFR3, sequence (P22607 whole entry, looked up, the tested form may be a part): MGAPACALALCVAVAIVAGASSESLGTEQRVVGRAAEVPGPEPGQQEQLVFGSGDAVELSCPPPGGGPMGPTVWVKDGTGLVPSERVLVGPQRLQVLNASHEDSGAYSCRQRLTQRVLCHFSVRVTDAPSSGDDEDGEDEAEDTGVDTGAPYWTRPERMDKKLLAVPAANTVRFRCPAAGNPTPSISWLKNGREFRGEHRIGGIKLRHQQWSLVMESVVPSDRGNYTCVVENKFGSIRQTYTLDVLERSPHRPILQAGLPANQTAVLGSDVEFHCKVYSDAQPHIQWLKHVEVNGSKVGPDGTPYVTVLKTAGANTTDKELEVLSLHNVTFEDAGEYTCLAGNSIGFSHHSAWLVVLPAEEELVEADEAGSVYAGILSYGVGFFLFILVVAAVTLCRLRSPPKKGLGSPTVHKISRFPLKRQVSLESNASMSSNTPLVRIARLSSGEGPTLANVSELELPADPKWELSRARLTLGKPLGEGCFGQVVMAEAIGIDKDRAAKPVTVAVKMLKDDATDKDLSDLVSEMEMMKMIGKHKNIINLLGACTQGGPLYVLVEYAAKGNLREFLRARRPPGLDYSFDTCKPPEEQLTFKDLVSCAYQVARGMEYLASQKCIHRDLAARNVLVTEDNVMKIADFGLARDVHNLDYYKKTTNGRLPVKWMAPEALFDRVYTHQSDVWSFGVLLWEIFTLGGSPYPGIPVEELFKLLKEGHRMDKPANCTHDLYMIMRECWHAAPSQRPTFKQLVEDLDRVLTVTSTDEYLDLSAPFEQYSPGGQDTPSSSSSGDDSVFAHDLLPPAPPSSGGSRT
EPHB1, sequence (P54762 whole entry, looked up): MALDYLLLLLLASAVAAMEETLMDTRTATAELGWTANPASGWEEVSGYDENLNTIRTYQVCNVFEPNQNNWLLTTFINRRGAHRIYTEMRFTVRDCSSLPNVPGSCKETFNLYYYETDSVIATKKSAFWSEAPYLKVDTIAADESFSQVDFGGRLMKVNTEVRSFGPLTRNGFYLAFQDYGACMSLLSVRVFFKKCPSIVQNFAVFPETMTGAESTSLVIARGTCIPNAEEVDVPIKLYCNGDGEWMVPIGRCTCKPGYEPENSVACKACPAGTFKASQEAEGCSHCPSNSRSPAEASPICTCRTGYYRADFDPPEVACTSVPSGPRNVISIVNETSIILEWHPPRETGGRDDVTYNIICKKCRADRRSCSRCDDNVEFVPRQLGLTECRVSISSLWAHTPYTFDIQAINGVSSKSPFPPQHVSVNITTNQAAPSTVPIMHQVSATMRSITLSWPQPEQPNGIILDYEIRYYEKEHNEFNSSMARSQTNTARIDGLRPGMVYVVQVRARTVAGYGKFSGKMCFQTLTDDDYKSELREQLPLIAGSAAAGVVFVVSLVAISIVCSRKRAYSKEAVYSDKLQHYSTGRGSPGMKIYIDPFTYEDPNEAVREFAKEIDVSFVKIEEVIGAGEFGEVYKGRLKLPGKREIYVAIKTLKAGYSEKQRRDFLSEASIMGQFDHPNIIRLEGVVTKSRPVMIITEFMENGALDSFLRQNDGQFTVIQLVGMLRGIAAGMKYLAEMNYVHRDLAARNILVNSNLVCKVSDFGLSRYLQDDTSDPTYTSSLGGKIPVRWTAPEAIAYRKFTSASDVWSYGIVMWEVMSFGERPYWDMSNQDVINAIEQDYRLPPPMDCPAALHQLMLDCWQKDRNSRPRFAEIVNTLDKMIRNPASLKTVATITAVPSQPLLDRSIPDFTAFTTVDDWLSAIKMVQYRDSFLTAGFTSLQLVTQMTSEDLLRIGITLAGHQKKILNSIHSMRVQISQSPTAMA
Grb2 SH2, sequence (P62993 whole entry, looked up): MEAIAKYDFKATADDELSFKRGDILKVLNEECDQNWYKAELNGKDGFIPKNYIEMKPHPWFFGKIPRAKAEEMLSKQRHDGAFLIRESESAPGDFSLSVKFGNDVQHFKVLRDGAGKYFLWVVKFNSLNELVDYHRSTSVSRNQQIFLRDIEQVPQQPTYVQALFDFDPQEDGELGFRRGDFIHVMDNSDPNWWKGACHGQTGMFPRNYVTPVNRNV
EPHB2, sequence (P29323 whole entry, looked up): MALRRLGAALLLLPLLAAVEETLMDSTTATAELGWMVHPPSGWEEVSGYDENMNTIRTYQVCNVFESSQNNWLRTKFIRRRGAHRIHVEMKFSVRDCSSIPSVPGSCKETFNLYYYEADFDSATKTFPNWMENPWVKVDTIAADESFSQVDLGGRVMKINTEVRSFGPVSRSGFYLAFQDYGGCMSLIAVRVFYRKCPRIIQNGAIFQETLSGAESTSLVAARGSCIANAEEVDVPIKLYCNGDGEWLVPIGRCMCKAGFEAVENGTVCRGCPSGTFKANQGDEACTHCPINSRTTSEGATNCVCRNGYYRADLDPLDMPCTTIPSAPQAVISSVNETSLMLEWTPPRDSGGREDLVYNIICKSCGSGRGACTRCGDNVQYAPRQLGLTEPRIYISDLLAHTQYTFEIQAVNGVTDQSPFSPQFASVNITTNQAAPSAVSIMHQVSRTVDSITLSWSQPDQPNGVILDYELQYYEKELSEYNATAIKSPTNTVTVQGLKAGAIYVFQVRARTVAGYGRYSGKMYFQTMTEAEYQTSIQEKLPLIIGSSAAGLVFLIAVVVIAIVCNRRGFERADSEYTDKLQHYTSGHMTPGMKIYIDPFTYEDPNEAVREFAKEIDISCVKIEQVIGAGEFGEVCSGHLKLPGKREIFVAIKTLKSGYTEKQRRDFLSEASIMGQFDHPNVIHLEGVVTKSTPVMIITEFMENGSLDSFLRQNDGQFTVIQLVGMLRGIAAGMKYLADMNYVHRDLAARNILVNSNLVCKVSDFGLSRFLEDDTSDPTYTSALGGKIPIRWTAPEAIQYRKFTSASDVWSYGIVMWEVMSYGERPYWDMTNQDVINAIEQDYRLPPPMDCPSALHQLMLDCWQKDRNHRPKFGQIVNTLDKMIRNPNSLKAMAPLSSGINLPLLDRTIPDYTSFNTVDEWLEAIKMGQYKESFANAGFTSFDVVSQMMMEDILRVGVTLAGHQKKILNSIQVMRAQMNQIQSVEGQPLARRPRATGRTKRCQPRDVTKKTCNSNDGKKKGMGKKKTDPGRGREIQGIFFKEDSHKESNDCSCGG
Fes, sequence (P07332 whole entry, looked up): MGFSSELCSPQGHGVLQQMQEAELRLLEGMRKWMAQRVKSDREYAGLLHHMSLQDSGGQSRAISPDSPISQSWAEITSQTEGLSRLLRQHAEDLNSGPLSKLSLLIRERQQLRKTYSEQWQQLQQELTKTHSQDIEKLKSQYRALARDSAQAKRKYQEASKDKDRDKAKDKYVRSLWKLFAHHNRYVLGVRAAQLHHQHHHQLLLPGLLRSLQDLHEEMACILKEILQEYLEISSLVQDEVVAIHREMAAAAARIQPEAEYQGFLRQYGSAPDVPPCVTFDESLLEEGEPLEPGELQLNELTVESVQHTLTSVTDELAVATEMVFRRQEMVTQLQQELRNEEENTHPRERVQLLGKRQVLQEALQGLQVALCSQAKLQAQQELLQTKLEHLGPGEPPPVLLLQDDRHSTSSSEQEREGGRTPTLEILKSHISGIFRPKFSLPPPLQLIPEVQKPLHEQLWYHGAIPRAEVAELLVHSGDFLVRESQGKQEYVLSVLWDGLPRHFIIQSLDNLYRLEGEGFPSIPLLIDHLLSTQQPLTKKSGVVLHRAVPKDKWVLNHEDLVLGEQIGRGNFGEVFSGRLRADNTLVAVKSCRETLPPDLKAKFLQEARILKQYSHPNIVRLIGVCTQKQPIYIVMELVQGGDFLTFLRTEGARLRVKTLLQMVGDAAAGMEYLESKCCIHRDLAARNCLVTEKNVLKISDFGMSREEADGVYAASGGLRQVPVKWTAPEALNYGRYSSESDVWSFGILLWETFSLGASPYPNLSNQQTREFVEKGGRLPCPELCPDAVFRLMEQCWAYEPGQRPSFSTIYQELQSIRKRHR
FGFR1, sequence (P11362 whole entry, looked up): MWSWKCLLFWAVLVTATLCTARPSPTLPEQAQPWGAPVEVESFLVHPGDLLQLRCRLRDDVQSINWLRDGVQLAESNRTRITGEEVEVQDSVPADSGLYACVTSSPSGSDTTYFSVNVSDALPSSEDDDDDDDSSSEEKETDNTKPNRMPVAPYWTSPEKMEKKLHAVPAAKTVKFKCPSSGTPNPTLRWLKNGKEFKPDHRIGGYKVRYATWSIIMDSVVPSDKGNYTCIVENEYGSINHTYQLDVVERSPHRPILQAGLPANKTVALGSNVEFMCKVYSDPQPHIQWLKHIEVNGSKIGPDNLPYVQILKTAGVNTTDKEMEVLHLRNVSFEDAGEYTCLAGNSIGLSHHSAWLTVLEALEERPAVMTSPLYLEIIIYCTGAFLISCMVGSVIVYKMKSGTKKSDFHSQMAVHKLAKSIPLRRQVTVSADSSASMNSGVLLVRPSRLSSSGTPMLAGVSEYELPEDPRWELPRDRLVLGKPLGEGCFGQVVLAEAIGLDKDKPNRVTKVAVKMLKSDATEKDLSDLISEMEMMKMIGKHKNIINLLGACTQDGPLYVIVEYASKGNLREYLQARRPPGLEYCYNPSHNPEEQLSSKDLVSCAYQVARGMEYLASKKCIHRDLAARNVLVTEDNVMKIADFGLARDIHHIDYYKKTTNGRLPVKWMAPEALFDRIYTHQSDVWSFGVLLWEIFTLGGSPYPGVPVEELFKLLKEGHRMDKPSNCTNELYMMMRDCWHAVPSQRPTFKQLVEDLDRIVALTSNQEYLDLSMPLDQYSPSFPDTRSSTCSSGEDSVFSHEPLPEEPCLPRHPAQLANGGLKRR

Sequence	SH2 binding enrichment (c-Src SH2)	SH2 binding enrichment (Grb2 SH2)	SH2 binding enrichment (SHP2-C SH2)	phosphorylation enrichment (Hck)	phosphorylation enrichment (FGFR1)	phosphorylation enrichment (EPHB1)	phosphorylation enrichment (Jak2)	phosphorylation enrichment (AncSZ)	phosphorylation enrichment (Fer (mouse))	phosphorylation enrichment (Fyn)	phosphorylation enrichment (c-Abl (mouse))	phosphorylation enrichment (c-Src)	phosphorylation enrichment (EPHB2)	phosphorylation enrichment (Fes)	phosphorylation enrichment (MERTK)	phosphorylation enrichment (FGFR3)
ADIETYLLEKS [MYH7_Y266]	0.405	0.755	0.88	0.551	0.484	0.466	0.871	1.04	0.431	0.554	0.746	0.731	0.582	1.12	0.46	0.635
SYCYRYRCAAR [SUMF1_Y344]	0.419	0.717	0.608	0.386	0.538	0.309	0.728	0.789	0.37	0.484	0.776	0.54	0.512	0.651	0.549	0.448
GFFDLYGGEKF [PTPN11_Y66_D61G_YF]	0.564	0.995	0.832	3.85	0.484	0.603	0.914	0.906	0.72	2.13	0.767	2.7	0.858	1.05	0.504	0.575
TRSFDYTEGGD [FGF7_Y58_M59T_YF]	0.513	0.87	0.494	0.501	0.52	0.569	0.975	1.23	0.572	0.513	0.659	0.431	0.519	1.19	0.503	0.625
FADIAYIFRHG [PAH_Y166_N167I_YF]	0.659	0.756	0.796	0.449	0.637	0.715	0.97	0.908	0.507	0.508	0.579	0.415	0.487	1.03	0.458	0.626
DTLMEYLENPK [CYCS_Y68]	0.502	0.915	0.872	0.69	0.511	0.672	1.28	1.51	0.677	0.484	0.95	0.562	0.682	1.49	0.529	0.905
KGIDRYNPENL [EIF3K_Y21]	0.524	0.861	0.785	0.384	0.493	0.349	0.449	0.583	0.372	0.42	0.456	0.358	0.446	0.736	0.414	0.564
IGEGTYRQVFK [CDK13_Y716_G717R_YF]	0.41	0.732	0.505	0.634	0.488	0.603	0.715	0.693	0.474	0.485	0.558	0.386	0.582	0.973	0.348	0.654
NFRPGYNNFFN [USH2A_Y467_YF]	0.497	0.9	0.686	0.466	0.519	0.354	0.712	0.773	0.389	0.522	0.574	0.64	0.483	0.772	0.433	0.549
PYGQWYESHYA [RPS8_Y113_R110G]	1.47	0.808	0.992	5.96	2.7	14.5	1.09	1.55	20.6	6.11	1.06	6.96	15.1	2.16	9.28	2.15
ATPKGYELDAS [OTC_Y223_P225L]	0.627	0.878	0.665	0.442	0.466	0.442	1	0.966	0.465	0.478	0.697	0.405	0.551	0.903	0.491	0.557
QYPDIYAREEV [CRX_Y67_V66I]	0.552	0.687	0.299	2.6	1.23	1.63	2.02	3.09	1.29	1.84	2.12	1.54	1.02	2.14	1.48	1.41
SKEPYYVHCIK [MYO1D_Y586_R588H]	0.81	1.16	1.04	0.557	0.77	0.622	0.677	0.965	0.498	0.58	0.615	0.543	0.704	0.932	0.559	0.664
LIDTVYSSSSA [OR4C12_Y71]	0.551	0.603	0.734	3.42	0.979	0.757	1.19	1.06	0.96	3.74	1.03	3.25	0.782	1.57	0.641	1.32
ACVARYIFKRL [LPCAT3_Y348_W344C]	0.753	0.89	0.859	0.426	0.502	0.407	0.683	0.979	0.492	0.635	0.606	0.545	0.51	0.841	0.492	0.553
PSDPSYEDMRE [BMPR1A_Y467]	1.12	0.832	0.324	1.28	0.758	0.901	1.45	2.49	1.26	0.848	0.831	0.534	0.495	1.59	0.504	1.27
GLRFGYGGLGG [KRTAP20-2_Y15_V17G_YF]	0.593	1.05	0.612	0.376	0.509	0.455	0.581	0.655	0.368	0.394	0.455	0.419	0.467	0.739	0.456	0.53

Sequence	SH2 binding enrichment (c-Src SH2)	SH2 binding enrichment (Grb2 SH2)	SH2 binding enrichment (SHP2-C SH2)	phosphorylation enrichment (Hck)	phosphorylation enrichment (FGFR1)	phosphorylation enrichment (EPHB1)	phosphorylation enrichment (Jak2)	phosphorylation enrichment (AncSZ)	phosphorylation enrichment (Fer (mouse))	phosphorylation enrichment (Fyn)	phosphorylation enrichment (c-Abl (mouse))	phosphorylation enrichment (c-Src)	phosphorylation enrichment (EPHB2)	phosphorylation enrichment (Fes)	phosphorylation enrichment (MERTK)	phosphorylation enrichment (FGFR3)
SRIWVYNHYRW [BRCA2_Y2621]	1.17	1.14	1.1	0.442	0.574	0.671	0.95	1.05	0.396	0.469	0.783	0.402	0.466	1.59	0.466	0.845
PAGSGYPAYLG [ATP6V1A_Y374_D371G]	0.396	0.884	0.688	0.645	1.17	1.22	0.727	0.782	0.866	0.574	0.525	0.417	0.638	0.752	0.442	0.914
NQILPYIEELV [PPP2R1B_Y341_K343E]	0.725	0.979	0.953	0.568	0.533	0.673	1.45	1.37	0.931	0.53	0.875	0.507	0.644	1.28	0.504	0.781
PSAELYSYALP [PDGFRB_Y716_N718Y]	3.46	0.966	0.641	8.81	10.6	18	0.947	3.71	25.8	6.1	1.55	5.38	21.2	1.92	16.8	10
QEALEYFMKQM [PIK3CA_Y1038]	0.636	0.667	0.698	0.39	0.627	0.644	1.49	1.36	0.584	0.696	1.19	0.675	0.624	1.22	0.584	0.704
LPENPYHSRPR [NDUFA8_Y142]	0.561	1.03	0.637	0.916	0.442	0.3	0.552	0.643	0.384	0.72	0.761	1.8	0.41	0.632	0.415	0.408
NVLPEYKLQAP [KCNH2_Y388_D383N]	0.455	0.906	0.564	0.527	0.411	0.518	0.813	0.784	0.402	0.508	0.677	0.439	0.632	0.949	0.43	0.619
GLNKGYRMVVN [HINT1_Y94]	0.424	0.665	0.503	0.436	0.388	0.307	0.403	0.531	0.318	0.375	0.461	0.34	0.392	0.696	0.303	0.449
YQLENCCNGGG [INS_Y108_Y108C]	0.972	0.747	0.666	0.563	0.547	1.05	0.763	0.829	0.535	0.689	0.556	0.59	0.522	0.903	0.601	0.621
EDGCIYPATIA [SMN1_Y109]	0.589	0.927	0.671	0.577	0.546	0.744	1.1	1.07	0.513	0.587	0.87	0.539	0.562	1.37	0.545	0.727
QLGLQYSQGLV [EIF2B4_Y214_R209Q]	0.375	0.644	0.721	0.598	0.478	0.427	1.75	0.995	0.527	0.447	0.861	0.629	0.479	0.835	0.731	0.776
SRIWVYNHYRC [BRCA2_Y2621_W2626C]	0.695	0.938	0.864	0.459	0.51	0.555	0.934	0.927	0.482	0.396	0.65	0.392	0.587	1.11	0.377	0.726
FPPDGYSRHCE [CTNND1_Y213_Y217C_YF]	0.617	0.985	0.706	0.473	0.477	0.565	0.741	0.784	0.485	0.431	0.584	0.376	0.542	0.904	0.383	0.661
DMGAQYAAASR [ARID1B_Y483_P488R]	0.612	0.761	0.553	0.402	0.357	0.371	0.49	0.575	0.393	0.37	0.644	0.365	0.375	0.54	0.31	0.396
IYETDYYRKGG [INSR_Y1189]	0.59	0.863	0.621	1.28	0.479	0.645	0.942	1.05	1.54	1.14	0.626	1.16	0.673	0.885	3.92	0.771
SSENPYATIKD [MEGF10_Y1030]	14	0.985	9.45	1.65	0.496	0.458	0.876	0.87	0.944	1.52	0.741	2.31	0.597	0.897	0.506	0.53
